The target of assay [1] is endogenous BP-53 of human serum (human) (UniProt P17936). Kind of assay: DEAE-Sephadex peaks A and B mixed for 60 min at 22° C, Superose-12, BP-53 RIA.
Assay [2] has as its target IGF affinity column loaded with BP-53 (BP-53 non-covalently bound to agarose-IGF) (human) (UniProt P17936). Kind of assay: affinity chromatography of DEAE-Sephadex ALS fractions on the IGF column loaded with BP-53.
Assay [3] addresses acid-labile sub-unit (ALS) of insulin like growth factor binding protein complex (human) (UniProt P35858). Kind of assay: competition of acidified-neutralized serum with cross-linked BP-53-IGF-I tracer in the routine ALS assay.

As usually defined, the IC50 is the concentration needed to halve the response being measured. Read a high IC50 as lower potency.

Sequence of acid-labile sub-unit (ALS) of insulin like growth factor binding protein complex (human) (P35858 28-605, one chain of several): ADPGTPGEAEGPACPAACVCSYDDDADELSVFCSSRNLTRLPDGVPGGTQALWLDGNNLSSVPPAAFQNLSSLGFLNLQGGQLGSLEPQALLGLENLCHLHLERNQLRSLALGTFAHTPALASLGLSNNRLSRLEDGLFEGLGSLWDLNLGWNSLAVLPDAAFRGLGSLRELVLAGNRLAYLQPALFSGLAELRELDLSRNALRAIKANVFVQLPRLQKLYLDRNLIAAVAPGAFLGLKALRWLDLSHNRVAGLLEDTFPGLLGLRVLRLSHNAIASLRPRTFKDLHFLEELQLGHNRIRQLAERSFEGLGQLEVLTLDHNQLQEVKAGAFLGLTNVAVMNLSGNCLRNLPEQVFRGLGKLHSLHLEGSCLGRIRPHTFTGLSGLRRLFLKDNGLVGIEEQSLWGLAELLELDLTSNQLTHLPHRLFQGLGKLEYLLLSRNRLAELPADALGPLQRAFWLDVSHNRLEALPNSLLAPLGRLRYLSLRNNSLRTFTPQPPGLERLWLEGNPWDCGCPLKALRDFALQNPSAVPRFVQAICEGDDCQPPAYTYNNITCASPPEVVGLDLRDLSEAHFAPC
Sequence of acid-labile sub-unit (ALS) of insulin like growth factor binding protein complex (P35858 28-605, one chain of several): as above

Take “acid-labile sub-unit (ALS) of insulin like growth factor binding protein complex (from UniProt P35858 28-605)”: in assay [1], the percent of BP-53 activity shifted from 30-60K to 150K is above 50%. In assay [2], this substance came in with a percent of ALS activity retained above 90%.

Regarding “endogenous BP-53 of human serum (from UniProt P17936 28-291)”, in assay [3], the IC50 was in the range of 0.2 to 0.25 µg/mL and the concentration for full displacement turned out to be 1 µg/mL.

The record behind these values is patent publication US6465423.
